T1: TOCA1 HR1-SH3 (residues 330–545) (Xenopus tropicalis, UniProt Q6GUF4 330-545)
T1 construct: Xenopus tropicalis TOCA1, C-terminally extended HR1 construct, residues 330-545, in pMAT10-P; also called HR1-SH3 protein; TOCA1 330–545; source: E. coli, purified (Ni-NTA, 3C protease cleavage, gel filtration); not shown: His, N-terminal, cleaved; MBP, N-terminal, cleaved
T1 sequence (looked up): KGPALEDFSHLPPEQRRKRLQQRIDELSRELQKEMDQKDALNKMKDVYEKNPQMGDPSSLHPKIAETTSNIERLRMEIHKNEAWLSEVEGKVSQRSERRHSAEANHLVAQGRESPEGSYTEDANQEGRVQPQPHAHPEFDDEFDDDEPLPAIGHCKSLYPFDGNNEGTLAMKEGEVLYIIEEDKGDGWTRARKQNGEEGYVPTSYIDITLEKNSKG

B1: Cdc42Δ7Q61L (domain or fragment)
chain: not shown
notes: Human Cdc42 with seven residues deleted from the C terminus and the mutation Q61L; cloned into pGEX-2T; Loaded with [3H]GTP for SPA and with GMPPNP for NMR; 15N- or 15N/13C-labelled in some NMR experiments; also called truncated Cdc42; Cdc42Δ7Q61L·[3H]GTP; source: E. coli BL21, purified (glutathione-agarose, thrombin cleavage, gel filtration)

Experiments:
Conditions in all cases: both partners purified
full-length Cdc42Q61L = target: T2, full-length Cdc42Q61L (human, UniProt P60953 1-191, Q61L); experiment: scintillation proximity assay; competition; free effector domain titrated into 30 nM Cdc42·[3H]GTP and 30 nM GST-ACK (in Fig. 7B GST-ACK or GST-WASP GBD) immobilised on a fluoromicrosphere; Kd from competition binding isotherms
T2 construct: Human Cdc42, full length, Q61L; cloned into pGEX-6P-1; confirmed as full-length by mass spectrometry; Loaded with [3H]GTP for SPA; also called Cdc42FLQ61L; full-length [3H]GTP·Cdc42; source: E. coli BL21, purified (glutathione-agarose, 3C protease cleavage, gel filtration)

Cdc42Δ7Q61L [1] = target: B1; experiment: as above
[2] = target: T1, TOCA1 HR1-SH3 (residues 330–545); experiment: as above
Cdc42Δ7Q61L [3] = target: B1; experiment: scintillation proximity assay; direct binding; 30 nM GST-PAK, GST-ACK or His-tagged TOCA1 construct attached to a fluoromicrosphere via an anti-GST or anti-His antibody; Cdc42·[3H]GTP at increasing concentrations; apparent Kd from a direct binding isotherm

T2 sequence (P60953 whole entry Q61L, the tested form may be a part): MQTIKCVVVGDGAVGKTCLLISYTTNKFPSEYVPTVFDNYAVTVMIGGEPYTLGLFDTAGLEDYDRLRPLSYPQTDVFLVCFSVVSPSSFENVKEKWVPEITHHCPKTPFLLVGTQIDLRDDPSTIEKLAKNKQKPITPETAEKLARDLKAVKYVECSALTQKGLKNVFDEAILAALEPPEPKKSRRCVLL
Sequence of Cdc42Δ7Q61L (P60953 1-184 Q61L): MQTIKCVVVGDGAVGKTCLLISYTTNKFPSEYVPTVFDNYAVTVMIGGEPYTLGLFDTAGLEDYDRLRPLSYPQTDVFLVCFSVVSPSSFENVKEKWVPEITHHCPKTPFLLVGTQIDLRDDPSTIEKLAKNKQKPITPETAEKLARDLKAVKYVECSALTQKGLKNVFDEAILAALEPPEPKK

| Kd (full-length Cdc42Q61L) | Kd (Cdc42Δ7Q61L [1]) | Binder | other results |
| --- | --- | --- | --- |
| 5 µM | – | CIP4 HR1 domain (residues 388–481) (domain or fragment, human, UniProt Q15642 388-481, looked up, also called HR1^CIP4; source: E. coli BL21, purified (glutathione-agarose, 3C protease cleavage, gel filtration); not shown: GST, N-terminal, cleaved) TEDFSHLPPEQQRKRLQQQLEERSRELQKEVDQREALKKMKDVYEKTPQMGDPASLEPQIAETLSNIERLKLEVQKYEAWLAEAESRVLSNRGD | – |
| – | 0.037 µM | N-WASP G protein-binding domain (GBD) (residues 197–255) (domain or fragment, Xenopus tropicalis, UniProt Q6NX29 197-255, looked up, also called N-WASP GBD; N-WASP CRIB domain; source: E. coli BL21-CodonPlus-RIL, purified (glutathione-agarose, 3C protease cleavage, gel filtration); not shown: GST, N-terminal, cleaved) KKKLTKADIGTPSNFQHIGHVGWDPNTGFDVNNLDPELKKLFDLCGISEAQLKDKETSK | – |
| 10 µM | – | FBP17 HR1 domain (residues 385–486) (domain or fragment, Xenopus laevis, UniProt Q6GNV5 385-486, looked up, Xenopus laevis FBP17 HR1 domain, residues 385-486, from IMAGE clone 5514481, in pGEX-6P-1; also called HR1^FBP17; source: E. coli BL21, purified (glutathione-agarose, 3C protease cleavage, gel filtration); not shown: GST, N-terminal, cleaved) LKRGGSTPEDFSNLPPEQRRKKLQQKVDELNKDIQKEIDQRDALTKMRDVYTKNPQMGDAASVGQKLVEIGNNIEKLRVEVQKFEGWLAEVEGRLSARNDSS | – |
| – | – | B1 | Kd [2]: 4.6 µM |
| – | – | TOCA1 HR1 domain (residues 330–426) with C-terminal His6 tag (domain or fragment, Xenopus tropicalis, UniProt Q6GUF4 330-426, looked up, Xenopus tropicalis TOCA1 HR1 domain, residues 330-426, from cDNA NM_001005148, in pGEX-HisP; also called HR1-His6; C-terminally His-tagged TOCA1 HR1 domain construct; source: E. coli BL21, purified (glutathione-agarose, 3C protease cleavage, gel filtration); not shown: GST, N-terminal, cleaved; His6, C-terminal, kept) KGPALEDFSHLPPEQRRKRLQQRIDELSRELQKEMDQKDALNKMKDVYEKNPQMGDPSSLHPKIAETTSNIERLRMEIHKNEAWLSEVEGKVSQRSE | Kd (Cdc42Δ7Q61L [3]): > 1 µM |
| 5.39 µM | 6.05 µM | TOCA1 HR1 domain (residues 330–426), untagged (domain or fragment, Xenopus tropicalis, UniProt Q6GUF4 330-426, looked up, Xenopus tropicalis TOCA1 (transducer of Cdc42-dependent actin assembly protein 1) HR1 domain, residues 330-426, from cDNA NM_001005148, in pGEX-6P-1; 15N- or 13C/15N-labelled in some NMR experiments; also called HR1^TOCA1; TOCA HR1 domain; source: E. coli BL21, purified (glutathione-agarose, 3C protease cleavage, gel filtration); not shown: GST, N-terminal, cleaved) KGPALEDFSHLPPEQRRKRLQQRIDELSRELQKEMDQKDALNKMKDVYEKNPQMGDPSSLHPKIAETTSNIERLRMEIHKNEAWLSEVEGKVSQRSE | – |

Source: publication PMC4919469, “Investigation of the Interaction between Cdc42 and Its Effector TOCA1” (The Journal of Biological Chemistry, 2016)
